According to US6881719B2, “β-turn peptidomimetic cyclic compounds” (McGill University, priority 2000, dated 2005):
Blank lines part the entries; values can stand above or below the molecule they belong to. No end group written: not given here.

Assays:
[1] = tested on: wild type NIH3T3 fibroblasts; experiment: Cell survival (MTT), NIH wt; format: cell-based; conditions: 72 hours
From the text: (§1) The 4-3.6 cells are B104 cells stably transfected with human trkA cDNA, and express equal levels of p75 and TrkA (TrkA+ p75+). For screening agents that activate or antagonize TrkC receptors, NIH3T3 fibroblasts were stably transfected with human TrkC cDNA. These cells respond to the ligand NT-3. For screening agents that activate or antagonize TrkA receptors, NIH3T3 fibroblasts were stably transfected with human TrkA cDNA. These cells respond to the ligand NGF.
(§2) Cell lines: 5,000 cells/well in protein-free media (PFHM-II, GIBCO, Toronto) containing 0.2% bovine serum albumin (BSA) (Crystalline fraction V, Sigma, St. Louis, Mo.) were seeded in 96 well plates (Falcon, Mississauga, Ontario). The cultures were untreated, or treated with the indicated test or control ligands. Cell viability was quantitated using the MTT assay after 56-72 hours of culture. […] The OD of untreated cells were subtracted. The higher optical density of untreated primary cultures is likely due to cellular heterogeneity and to endogenous production of limiting amounts of growth factors.

[2] = target: T1, NIH3T3 fibroblasts expressing TrkC (Homo sapiens, UniProt Q16288); experiment: Cell survival (MTT), NIH-TrkC; format: cell-based; conditions: 72 hours
T1 construct: expressed in transfected cells; host or cells: NIH3T3 fibroblasts
T1 sequence (Q16288 32-839): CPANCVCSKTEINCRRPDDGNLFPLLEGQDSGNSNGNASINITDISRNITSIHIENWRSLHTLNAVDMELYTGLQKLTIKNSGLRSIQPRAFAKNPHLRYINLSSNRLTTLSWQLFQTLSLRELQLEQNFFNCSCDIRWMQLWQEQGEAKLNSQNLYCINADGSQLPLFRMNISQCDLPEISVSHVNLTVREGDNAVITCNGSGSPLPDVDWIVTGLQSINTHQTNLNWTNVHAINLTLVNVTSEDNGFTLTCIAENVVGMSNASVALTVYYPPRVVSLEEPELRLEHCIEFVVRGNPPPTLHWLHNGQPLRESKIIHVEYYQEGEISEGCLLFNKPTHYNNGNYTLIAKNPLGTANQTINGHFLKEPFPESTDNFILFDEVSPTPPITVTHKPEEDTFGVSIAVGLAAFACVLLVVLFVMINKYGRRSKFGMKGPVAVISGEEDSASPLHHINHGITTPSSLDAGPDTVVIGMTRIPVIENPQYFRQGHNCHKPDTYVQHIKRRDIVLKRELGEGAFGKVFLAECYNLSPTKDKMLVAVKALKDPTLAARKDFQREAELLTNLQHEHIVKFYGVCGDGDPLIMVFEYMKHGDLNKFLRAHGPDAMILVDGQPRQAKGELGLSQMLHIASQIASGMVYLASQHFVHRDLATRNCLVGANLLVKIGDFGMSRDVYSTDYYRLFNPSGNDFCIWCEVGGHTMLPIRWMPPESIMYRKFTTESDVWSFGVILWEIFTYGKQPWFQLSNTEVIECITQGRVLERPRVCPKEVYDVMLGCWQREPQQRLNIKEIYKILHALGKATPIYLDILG
From the text: as §1, §2

[3] = target: T2, NIH3T3 fibroblasts expressing TrkA (Homo sapiens, UniProt P04629); experiment: Cell survival (MTT), NIH-TrkA; format: cell-based; conditions: 72 hours;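 note: 100% equals survival with optimal NGF at 1 nM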
T2 construct: expressed in transfected cells; host or cells: NIH3T3 fibroblasts
T2 sequence (P04629 33-796): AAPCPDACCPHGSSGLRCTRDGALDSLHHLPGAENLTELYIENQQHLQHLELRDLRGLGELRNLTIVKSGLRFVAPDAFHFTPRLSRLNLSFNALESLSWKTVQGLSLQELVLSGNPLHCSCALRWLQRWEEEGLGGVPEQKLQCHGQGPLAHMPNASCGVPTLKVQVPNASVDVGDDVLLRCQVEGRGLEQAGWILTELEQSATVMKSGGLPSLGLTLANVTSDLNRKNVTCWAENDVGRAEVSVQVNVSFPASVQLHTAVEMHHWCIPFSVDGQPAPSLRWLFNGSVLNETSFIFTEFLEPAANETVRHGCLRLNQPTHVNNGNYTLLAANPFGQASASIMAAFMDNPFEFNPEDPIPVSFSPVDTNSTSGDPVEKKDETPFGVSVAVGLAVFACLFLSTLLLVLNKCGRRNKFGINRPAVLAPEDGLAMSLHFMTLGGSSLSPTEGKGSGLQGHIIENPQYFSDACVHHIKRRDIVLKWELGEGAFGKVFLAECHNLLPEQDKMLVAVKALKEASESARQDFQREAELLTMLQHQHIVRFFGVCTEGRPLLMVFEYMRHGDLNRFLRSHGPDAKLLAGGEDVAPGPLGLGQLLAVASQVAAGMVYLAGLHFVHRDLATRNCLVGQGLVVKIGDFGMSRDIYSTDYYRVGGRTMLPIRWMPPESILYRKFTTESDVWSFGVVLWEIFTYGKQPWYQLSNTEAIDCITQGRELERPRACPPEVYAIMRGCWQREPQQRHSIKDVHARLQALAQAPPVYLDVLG
From the text: as §1, with “These cells respond to the ligand NT-3.” left out, “cDNA.” for “cDNA. These cells respond to the ligand NGF.”
as §2, with “subtracted.” for “subtracted. The higher optical density of untreated primary cultures is likely due to cellular heterogeneity and to endogenous production of limiting amounts of growth factors.”

[4] = target: p75 NGF receptor on B104 rat neuroblastoma cells and 4-3.6 cells (rat) (UniProt P07174); experiment: FACScan, 4-3.6 cells, mAb 1 nM, no competitor
Sequence of p75 NGF receptor on B104 rat neuroblastoma cells and 4-3.6 cells (rat) (P07174 30-425): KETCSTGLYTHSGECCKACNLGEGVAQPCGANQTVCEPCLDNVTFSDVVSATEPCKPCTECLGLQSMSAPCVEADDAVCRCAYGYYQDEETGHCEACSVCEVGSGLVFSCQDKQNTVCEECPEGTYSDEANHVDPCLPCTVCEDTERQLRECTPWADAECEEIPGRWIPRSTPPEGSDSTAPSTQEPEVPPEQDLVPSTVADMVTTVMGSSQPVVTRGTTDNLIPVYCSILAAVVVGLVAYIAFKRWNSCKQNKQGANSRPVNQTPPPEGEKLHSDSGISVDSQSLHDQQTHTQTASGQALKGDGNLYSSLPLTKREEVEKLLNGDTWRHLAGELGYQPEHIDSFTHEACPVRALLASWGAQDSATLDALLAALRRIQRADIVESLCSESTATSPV

[5] = target: human TrkA expressed on transfected cells (4-3.6 cells; NIH3T3-TrkA cells) (human) (UniProt P04629); experiment: FACScan, 4-3.6 cells (p75+ TrkA+), avidin-FITC
Sequence of human TrkA expressed on transfected cells (4-3.6 cells; NIH3T3-TrkA cells) (human) (P04629 33-796): as the sequence (P04629 33-796) above

[6] = target: TrkA on primary rat embryonic neurons (DRG and septal cultures) (rat) (UniProt P35739); experiment: cell-based or functional assay
Sequence of TrkA on primary rat embryonic neurons (DRG and septal cultures) (rat) (P35739 33-799): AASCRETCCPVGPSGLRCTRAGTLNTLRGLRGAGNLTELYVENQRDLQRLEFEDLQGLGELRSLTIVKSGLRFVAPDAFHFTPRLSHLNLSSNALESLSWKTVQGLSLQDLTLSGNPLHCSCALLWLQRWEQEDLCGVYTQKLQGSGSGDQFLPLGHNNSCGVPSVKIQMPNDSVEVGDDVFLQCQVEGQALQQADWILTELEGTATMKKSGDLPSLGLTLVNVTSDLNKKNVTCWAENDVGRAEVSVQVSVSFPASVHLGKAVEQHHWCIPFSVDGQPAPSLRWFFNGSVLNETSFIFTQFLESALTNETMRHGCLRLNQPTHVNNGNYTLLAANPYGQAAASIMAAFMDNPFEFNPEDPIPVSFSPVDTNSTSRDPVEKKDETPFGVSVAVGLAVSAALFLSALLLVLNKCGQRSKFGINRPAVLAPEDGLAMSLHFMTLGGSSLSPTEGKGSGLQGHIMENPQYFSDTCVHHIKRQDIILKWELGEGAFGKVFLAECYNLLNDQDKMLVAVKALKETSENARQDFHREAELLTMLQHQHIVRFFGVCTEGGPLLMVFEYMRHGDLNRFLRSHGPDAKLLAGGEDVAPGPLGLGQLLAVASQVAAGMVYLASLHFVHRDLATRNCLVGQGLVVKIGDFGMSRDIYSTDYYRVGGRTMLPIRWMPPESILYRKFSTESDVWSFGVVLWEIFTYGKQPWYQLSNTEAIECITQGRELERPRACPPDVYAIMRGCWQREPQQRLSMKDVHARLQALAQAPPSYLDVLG

[7] = target: human TrkC expressed on transfected NIH3T3 fibroblasts (human) (UniProt Q16288); experiment: cell-based or functional assay
Sequence of human TrkC expressed on transfected NIH3T3 fibroblasts (human) (Q16288 32-839): as the sequence (Q16288 32-839) above

[8] = target: human TrkC expressed on transfected NIH3T3 fibroblasts (human) (UniProt Q16288); experiment: cell-based or functional assay; remark: listed apart in the source
[9] = target: human TrkA expressed on transfected cells (4-3.6 cells; NIH3T3-TrkA cells) (human) (UniProt P04629); experiment: cell-based or functional assay
[10] = target: TrkA on primary rat embryonic neurons (DRG and septal cultures) (rat, UniProt P35739 33-799); experiment: cell-based or functional assay
Sequence of TrkA on primary rat embryonic neurons (DRG and septal cultures) (P35739 33-799): as the sequence (P35739 33-799) above

Molecule: NT-3: Neurotrophin-3, prefers binding to TrkC receptors
NIH wt % Protection ([1]; 10 pM NT-3): 1 ± 4%
NIH wt % Protection ([1]; 1 nM NT-3): −2 ± 5%
NIH-TrkC % Protection ([2]; 10 pM NT-3): 29±1%
NIH-TrkC % Protection ([2]; 1 nM NT-3): 100 ± 2%
NIH-TrkA % Protection ([3]; 10 pM NT-3): 3 ± 2%
NIH-TrkA % Protection ([3]; 1 nM NT-3): 17 ± 3%

Molecule: anti-p75 monoclonal antibody MC192
% Maximal binding [4]: 100%

B1: Neurotrophin-3 (NT-3) (ligand, UniProt P20783 139-257, looked up, species assumed)
Neurotrophin-3: YAEHKSHRGEYSVCDSESLWVTDKSSAIDIRGHQVTVLGEIKTGNSPVKQYFYETRCKEARPVKNGCRGIDDKHWNSQCKTSQTYVRALTSENNKLVGWRWIRIDTSCVCALSRKIGRT
% Protection (MTT, NIH-TrkC), 10 pM NT-3 [8]: 29%
% Protection (MTT, NIH-TrkA), 10 pM NT-3 [9]: 3%

B2: C59 (EKCys), inactive analog of D3 (peptide)
peptide: Glu-Lys-Cys
modifications: also: further groups not given here
ChAT Fold Increase, 20 µM C59 control [10]: 1 fold

Now from value to molecule, other results behind:

MCF [5]: 10 MCF
Molecule: control-biotin (an inactive biotinylated peptide)

% Protection (MTT, rat DRG neurons), NGF 20 pM [6]: 9%
% Protection (MTT, rat DRG neurons), NGF 500 pM [6]: 68%
ChAT Activity (rat septal neurons), 10 pM NGF (pmol Ach/min/well) [6]: 0.42
ChAT Activity (rat septal neurons), 400 pM NGF (pmol Ach/min/well) [6]: 0.72
% Protection (MTT, NIH-TrkC), 10 pM NGF [7]: 2%
% Protection (MTT, NIH-TrkC), 1 nM NGF [7]: 5%
Molecule: nerve growth factor (NGF) (ligand)
Optical Density (MTT survival, rat DRG neurons), NGF 20 pM [6]: 316 OD
Optical Density (MTT survival, rat DRG neurons), NGF 500 pM [6]: 0.535 OD
Optical Density (MTT survival, rat DRG neurons), NGF 1 nM [6]: 823 OD
